Data on one molecule can be found in article doi:10.1101/2020.10.22.351056 (bioRxiv, 2020).

As a reminder, the EC50 is the concentration giving half of the maximal effect.

For the assay, the target named is Fc-conjugated human angiotensin converting enzyme 2 (ACE2-Fc) (human, UniProt Q9BYF1). In words: ELISA.
Fc-conjugated human angiotensin converting enzyme 2 (ACE2-Fc), sequence (Q9BYF1 18-740): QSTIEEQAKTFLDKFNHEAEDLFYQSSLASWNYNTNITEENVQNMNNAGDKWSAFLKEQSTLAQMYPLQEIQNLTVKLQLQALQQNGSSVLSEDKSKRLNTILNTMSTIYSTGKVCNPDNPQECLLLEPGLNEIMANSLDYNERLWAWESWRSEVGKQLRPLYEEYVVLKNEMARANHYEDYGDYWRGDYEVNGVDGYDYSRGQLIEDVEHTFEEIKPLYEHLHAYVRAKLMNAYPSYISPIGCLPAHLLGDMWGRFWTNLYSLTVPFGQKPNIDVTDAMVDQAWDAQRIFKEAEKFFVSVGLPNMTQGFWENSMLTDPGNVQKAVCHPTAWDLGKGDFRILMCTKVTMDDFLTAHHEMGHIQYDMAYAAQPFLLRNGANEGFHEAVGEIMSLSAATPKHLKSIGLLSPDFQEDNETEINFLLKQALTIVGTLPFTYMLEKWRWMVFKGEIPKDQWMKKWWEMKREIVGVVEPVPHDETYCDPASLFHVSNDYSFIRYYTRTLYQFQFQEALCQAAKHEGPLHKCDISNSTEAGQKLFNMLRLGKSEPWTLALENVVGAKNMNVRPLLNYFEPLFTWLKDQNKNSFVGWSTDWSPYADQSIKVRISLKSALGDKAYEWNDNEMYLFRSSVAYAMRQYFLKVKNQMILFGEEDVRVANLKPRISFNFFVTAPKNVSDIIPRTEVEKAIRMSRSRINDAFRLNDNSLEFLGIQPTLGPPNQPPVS

B1: SARS-CoV spike protein S1+S2, His-tagged (domain or fragment)
chain: not shown
Take B1: the midpoint of the response, the EC50, lay at 13.9 nM. This counts as double-digit nanomolar.
